Measurements published in publication PMC8315086 (2021).

Key:
[1] = target: SARS-CoV-2 S1-His protein (SARS-CoV-2); test: ELISA
[2] = target: WT RBD-His (SARS-CoV-2, UniProt P0DTC2); test: ELISA

B1: 2B11 monoclonal antibody (full-length human IgG1) (antibody, V domains shown)
VH: EVQLVESGGGLVQPGGSLRLSCAASEITVSSNYMNWVRQAPGKGLEWVSVIYSGGTTYYADSVKGRFTISRDNSENTLYLQMNSLRAEDTAVYYCARDLMEVGGMDVWGQGTTVTVSS
VL: LPVLTQPPSASGTPGQRVTISCSGSSSNVENDNVNWFQQQVPGSTPKLVIYNDRLRPSGVPDRFSGSKSGTSAYLAISGLQSEDEADYYCVAWDASLQSYVFGTGTKVTVL
B1 was tested. Which IC50 [1] did it give?
The IC50 was 0.383 mg/L.

What about the IC50 [2] of the same binder?
The IC50 was 0.589 mg/L.
